Molecular target: JNK-2 (human (endogenous in HUVEC), UniProt P45984 1-424)
Assay: co-IP

B1: NFATc2 (natural protein)
chain: MNAPERQPQPDGGDAPGHEPGGSPQDELDFSILFDYEYLNPNEEEPNAHKVASPPSGPAYPDDVLDYGLKPYSPLASLSGEPPGRFGEPDRVGPQKFLSAAKPAGASGLSPRIEITPSHELIQAVGPLRMRDAGLLVEQPPLAGVAASPRFTLPVPGFEGYREPLCLSPASSGSSASFISDTFSPYTSPCVSPNNGGPDDLCPQFQNIPAHYSPRTSPIMSPRTSLAEDSCLGRHSPVPRPASRSSSPGAKRRHSCAEALVALPPGASPQRSRSPSPQPSSHVAPQDHGSPAGYPPVAGSAVIMDALNSLATDSPCGIPPKMWKTSPDPSPVSAAPSKAGLPRHIYPAVEFLGPCEQGERRNSAPESILLVPPTWPKPLVPAIPICSIPVTASLPPLEWPLSSQSGSYELRIEVQPKPHHRAHYETEGSRGAVKAPTGGHPVVQLHGYMENKPLGLQIFIGTADERILKPHAFYQVHRITGKTVTTTSYEKIVGNTKVLEIPLEPKNNMRATIDCAGILKLRNADIELRKGETDIGRKNTRVRLVFRVHIPESSGRIVSLQTASNPIECSQRSAHELPMVERQDTDSCLVYGGQQMILTGQNFTSESKVVFTEKTTDGQQIWEMEATVDKDKSQPNMLFVEIPEYRNKHIRTPVKVNFYVINGKRKRSQPQHFTYHPVPAIKTEPTDEYDPTLICSPTHGGLGSQPYYPQHPMVAESPSCLVATMAPCQQFRTGLSSPDARYQQQNPAAVLYQRSKSLSPSLLGYQQPALMAAPLSLADAHRSVLVHAGSQGQSSALLHPSPTNQQASPVIHYSPTNQQLRCGSHQEFQHIMYCENFAPGTTRPGPPPVSQGQRLSPGSYPTVIQQQNATSQRAAKNGPPVSDQKEVLPAGVTIKQEQNLDQTYLDDVNEIIRKEFSGPPARNQT
In the case of B1, the “fold increase of association by PEDF combined with VEGF or bFGF” value is reported as greater than 20 fold.

Reference: publication PMC2211785 (The Journal of Experimental Medicine, 2004)
